Target: T1, CCHFV Gc monomer (Gc10200 aa 1,041-1,579, Strep-Tag II) (Crimean-Congo hemorrhagic fever virus, …, UniProt Q8JSZ3 1041-1579)
T1 construct: also called Gc protein; recombinant Gc monomer
T1 sequence: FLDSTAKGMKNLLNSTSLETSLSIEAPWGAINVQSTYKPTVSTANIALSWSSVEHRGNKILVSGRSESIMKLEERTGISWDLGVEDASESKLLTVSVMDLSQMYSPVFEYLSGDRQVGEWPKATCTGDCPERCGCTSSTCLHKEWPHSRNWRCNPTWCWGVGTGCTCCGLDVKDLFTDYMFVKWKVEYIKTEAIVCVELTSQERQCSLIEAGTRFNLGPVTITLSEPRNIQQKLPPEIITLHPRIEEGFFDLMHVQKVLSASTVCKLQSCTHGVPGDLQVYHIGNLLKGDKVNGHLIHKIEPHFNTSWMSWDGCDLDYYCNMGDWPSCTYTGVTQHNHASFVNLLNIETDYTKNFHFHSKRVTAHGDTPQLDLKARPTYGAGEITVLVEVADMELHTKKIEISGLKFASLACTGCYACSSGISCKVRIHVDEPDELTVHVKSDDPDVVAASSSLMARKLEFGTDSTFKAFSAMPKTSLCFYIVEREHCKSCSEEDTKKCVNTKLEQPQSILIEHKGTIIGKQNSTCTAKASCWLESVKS
Experiment: BLI; ForteBio Octet Red; […] (15 µg/mL) […]; PBS with 0.02% Tween 20 and 0.1% BSA; 1/1 binding model
Settings: both partners purified

B1: Human recombinant MFGE8 protein with His tag at the C-terminus (natural protein, UniProt Q08431 24-387, looked up)
chain: LDICSKNPCHNGGLCEEISQEVRGDVFPSYTCTCLKGYAGNHCETKCVEPLGLENGNIANSQIAASSVRVTFLGLQHWVPELARLNRAGMVNAWTPSSNDDNPWIQVNLLRRMWVTGVVTQGASRLASHEYLKAFKVAYSLNGHEFDFIHDVNKKHKEFVGNWNKNAVHVNLFETPVEAQYVRLYPTSCHTACTLRFELLGCELNGCANPLGLKNNSIPDKQITASSSYKTWGLHLFSWNPSYARLDKQGNFNAWVAGSYGNDQWLQVDLGSSKEVTGIITQGARNFGSVQFVASYKVAYSNDSANWTEYQDPRTGSSKIFPGNWDNHSHKKNLFETPILARYVRILPVAWHNRIALRLELLGC
notes: also called milk fat globule-EGF factor 8 protein; lactadherin; not shown: His tag, C-terminal, kept
- Kd: < 1 pM
